As usually defined, the Kd is the free concentration of one partner at which half of the binding sites on the other are occupied at equilibrium, for simple one-to-one binding. A low value points to a tighter complex.

What all share (assay): fluorescence polarisation
For orientation: Fluorescence polarisation rises when a labelled molecule tumbles more slowly, as on binding a larger partner.

Assay [1] concerns the target talin-1 (TLN1) PTB domain, tag cleaved (FP) (human).
Assay [2] concerns the target SARS-CoV-2 NSP3 UBl1 domain, tag cleaved (FP) (SARS-CoV-2).
Assay [3] addresses SARS-CoV-2 NSP3 ADRP domain, tag cleaved (FP) (SARS-CoV-2).
For assay [4], the target named is G3BP1 NTF2-like domain, tag cleaved (FP) (human, UniProt Q13283 11-133).
Chain of G3BP1 NTF2-like domain, tag cleaved (FP) (Q13283 11-133): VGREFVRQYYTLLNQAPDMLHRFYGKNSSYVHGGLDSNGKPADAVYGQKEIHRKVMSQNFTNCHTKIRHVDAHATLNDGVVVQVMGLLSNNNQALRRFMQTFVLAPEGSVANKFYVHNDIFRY
Assay [5] deals with SARS-CoV-2 NSP3 SUD-M domain, tag cleaved (FP) (SARS-CoV-2).
The target in assay [6] is SARS-CoV-2 non-structural protein (NSP) 9, tag cleaved (FP) (SARS-CoV-2).

Chain of talin-1 (TLN1) PTB domain, tag cleaved (FP) (human) (Q9Y490 whole entry, the tested form may be a part): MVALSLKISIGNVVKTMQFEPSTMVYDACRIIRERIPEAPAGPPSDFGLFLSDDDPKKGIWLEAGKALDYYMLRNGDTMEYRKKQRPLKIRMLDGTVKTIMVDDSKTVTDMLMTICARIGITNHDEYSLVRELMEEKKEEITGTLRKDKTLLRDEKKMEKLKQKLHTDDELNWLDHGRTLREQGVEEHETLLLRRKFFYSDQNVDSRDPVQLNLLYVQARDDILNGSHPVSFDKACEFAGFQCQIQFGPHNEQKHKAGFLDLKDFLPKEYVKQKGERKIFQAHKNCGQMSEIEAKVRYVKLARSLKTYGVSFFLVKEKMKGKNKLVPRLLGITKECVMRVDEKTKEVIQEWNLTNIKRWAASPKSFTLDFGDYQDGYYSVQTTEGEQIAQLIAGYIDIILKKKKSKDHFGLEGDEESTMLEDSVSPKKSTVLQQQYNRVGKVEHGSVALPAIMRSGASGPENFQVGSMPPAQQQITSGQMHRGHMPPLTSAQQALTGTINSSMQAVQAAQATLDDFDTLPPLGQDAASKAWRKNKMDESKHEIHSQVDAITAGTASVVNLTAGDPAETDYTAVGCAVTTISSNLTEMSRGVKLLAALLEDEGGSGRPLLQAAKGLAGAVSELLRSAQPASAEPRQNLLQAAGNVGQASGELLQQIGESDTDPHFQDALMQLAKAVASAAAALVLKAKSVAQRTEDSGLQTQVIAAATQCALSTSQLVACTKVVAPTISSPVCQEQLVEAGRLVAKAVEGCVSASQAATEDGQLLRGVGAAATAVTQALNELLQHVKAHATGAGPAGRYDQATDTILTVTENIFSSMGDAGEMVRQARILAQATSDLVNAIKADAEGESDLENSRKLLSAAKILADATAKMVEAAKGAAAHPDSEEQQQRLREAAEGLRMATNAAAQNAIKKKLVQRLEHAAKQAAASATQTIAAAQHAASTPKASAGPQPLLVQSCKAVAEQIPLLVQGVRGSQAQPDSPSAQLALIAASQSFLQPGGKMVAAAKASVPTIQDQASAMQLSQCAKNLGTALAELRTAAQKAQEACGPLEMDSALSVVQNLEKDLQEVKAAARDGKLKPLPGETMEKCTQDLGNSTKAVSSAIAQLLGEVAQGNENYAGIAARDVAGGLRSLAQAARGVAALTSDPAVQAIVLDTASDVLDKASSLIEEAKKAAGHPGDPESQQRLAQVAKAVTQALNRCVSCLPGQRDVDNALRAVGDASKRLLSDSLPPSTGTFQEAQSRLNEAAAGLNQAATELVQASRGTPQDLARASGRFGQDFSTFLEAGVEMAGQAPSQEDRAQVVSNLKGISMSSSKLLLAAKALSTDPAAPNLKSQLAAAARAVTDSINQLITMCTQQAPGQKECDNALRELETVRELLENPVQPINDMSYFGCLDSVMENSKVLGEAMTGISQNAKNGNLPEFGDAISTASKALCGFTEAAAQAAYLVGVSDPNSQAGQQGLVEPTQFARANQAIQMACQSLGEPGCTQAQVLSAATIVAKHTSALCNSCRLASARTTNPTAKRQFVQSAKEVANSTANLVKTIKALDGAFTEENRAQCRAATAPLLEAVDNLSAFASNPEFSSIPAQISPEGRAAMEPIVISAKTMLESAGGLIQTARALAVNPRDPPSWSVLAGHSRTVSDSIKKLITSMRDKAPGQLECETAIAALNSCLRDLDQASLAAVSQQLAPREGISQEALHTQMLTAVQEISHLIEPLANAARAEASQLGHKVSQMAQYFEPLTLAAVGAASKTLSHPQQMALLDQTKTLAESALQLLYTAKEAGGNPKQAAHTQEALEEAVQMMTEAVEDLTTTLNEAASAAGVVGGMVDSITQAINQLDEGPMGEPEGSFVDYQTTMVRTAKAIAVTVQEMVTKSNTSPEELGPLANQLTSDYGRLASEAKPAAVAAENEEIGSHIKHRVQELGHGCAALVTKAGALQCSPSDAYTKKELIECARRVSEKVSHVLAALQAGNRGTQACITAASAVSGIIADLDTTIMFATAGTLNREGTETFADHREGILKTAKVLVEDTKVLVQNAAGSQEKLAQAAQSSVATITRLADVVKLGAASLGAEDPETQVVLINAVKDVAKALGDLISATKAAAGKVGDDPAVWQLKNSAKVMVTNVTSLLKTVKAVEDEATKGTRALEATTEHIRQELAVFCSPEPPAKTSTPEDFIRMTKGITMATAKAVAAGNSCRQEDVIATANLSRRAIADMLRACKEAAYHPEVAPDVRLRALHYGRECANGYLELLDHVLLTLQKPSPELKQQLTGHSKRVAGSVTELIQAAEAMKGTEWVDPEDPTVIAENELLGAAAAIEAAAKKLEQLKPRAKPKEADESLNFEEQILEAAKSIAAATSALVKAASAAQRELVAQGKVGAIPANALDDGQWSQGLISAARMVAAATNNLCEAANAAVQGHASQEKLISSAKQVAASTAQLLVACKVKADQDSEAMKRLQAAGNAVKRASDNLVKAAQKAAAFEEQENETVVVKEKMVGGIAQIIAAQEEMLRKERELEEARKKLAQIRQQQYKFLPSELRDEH

Molecule “TPTE2 92-107 Y103W peptide (from UniProt Q6XPS3 92-107)” yielded a Kd in assay [1] of 22 µM. “TPTE2 92-107 F97W peptide (from UniProt Q6XPS3 92-107)” had a Kd in assay [1] of 0.1 µM. Consider wild-type TPTE2 92-107 peptide, for which the Kd in assay [1] was 4.9 µM. On the same count and under the same terms, in the case of “TPTE2 92-107 F97Y peptide (from UniProt Q6XPS3 92-107)” it was 150 µM. Molecule “wild-type NCOA2 1073-1088 peptide (from UniProt Q15596 1073-1088)” had a Kd in assay [2] of 39 µM.

As to “TPTE2 92-107 S100N peptide (from UniProt Q6XPS3 92-107)”, the Kd in assay [1] stood at 1.7 µM. “wild-type MBOAT1 16-31 peptide (from UniProt Q6ZNC8 16-31)”: in assay [3], the Kd is 49 µM. In the case of “TPTE2 92-107 I104A peptide (from UniProt Q6XPS3 92-107)”, the Kd in assay [1] amounted to 18 µM. In turn, APRITFGGPSDSTGS [wildtype SARS-CoV-2 N 12-26 peptide] came in with a Kd in assay [4] of 2.3 µM. On to QFTEEDLHFVLYGVTPSL (modifications not checked) [wild-type PRDM14 peptide (FP)], for which, in assay [5], the Kd came out at 74 µM.

Molecule QGAWLGAPEPWEPL (modifications not checked) [wild-type NOTCH4 peptide (FP)] displayed a Kd in assay [6] of 72 µM.

These data come from paper doi:10.1101/2024.08.06.606761 (bioRxiv, 2024).
